Data as given in IntAct's records for PubMed 25910212.

B1: Adenosylhomocysteinase (Homo sapiens), P23526 (parent)
chain: MSDKLPYKVADIGLAAWGRKALDIAENEMPGLMRMRERYSASKPLKGARIAGCLHMTVETAVLIETLVTLGAEVQWSSCNIFSTQDHAAAAIAKAGIPVYAWKGETDEEYLWCIEQTLYFKDGPLNMILDDGGDLTNLIHTKYPQLLPGIRGISEETTTGVHNLYKMMANGILKVPAINVNDSVTKSKFDNLYGCRESLIDGIKRATDVMIAGKVAVVAGYGDVGKGCAQALRGFGARVIITEIDPINALQAAMEGYEVTTMDEACQEGNIFVTTTGCIDIILGRHFEQMKDDAIVCNIGHFDVEIDVKWLNENAVEKVNIKPQVDRYRLKNGRRIILLAEGRLVNLGCAMGHPSFVMSNSFTNQVMAQIELWTHPDKYPVGVHFLPKKLDEAVAEAHLGKLNVKLTKLTEKQAQYLGMSCDGPFKPDHYRY
partner: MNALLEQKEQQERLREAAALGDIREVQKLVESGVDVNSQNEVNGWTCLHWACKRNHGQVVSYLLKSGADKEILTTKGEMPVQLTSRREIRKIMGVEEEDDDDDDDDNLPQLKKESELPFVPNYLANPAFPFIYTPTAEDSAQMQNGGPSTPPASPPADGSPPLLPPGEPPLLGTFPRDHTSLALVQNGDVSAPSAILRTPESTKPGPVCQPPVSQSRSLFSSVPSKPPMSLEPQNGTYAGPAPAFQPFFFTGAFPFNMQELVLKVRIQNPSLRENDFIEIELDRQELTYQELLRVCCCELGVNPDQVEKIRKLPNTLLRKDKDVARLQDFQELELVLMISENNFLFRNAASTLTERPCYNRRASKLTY
B2: U4/U6 small nuclear ribonucleoprotein Prp31 (Homo sapiens), Q8WWY3 (parent)
chain: MSLADELLADLEEAAEEEEGGSYGEEEEEPAIEDVQEETQLDLSGDSVKTIAKLWDSKMFAEIMMKIEEYISKQAKASEVMGPVEAAPEYRVIVDANNLTVEIENELNIIHKFIRDKYSKRFPELESLVPNALDYIRTVKELGNSLDKCKNNENLQQILTNATIMVVSVTASTTQGQQLSEEELERLEEACDMALELNASKHRIYEYVESRMSFIAPNLSIIIGASTAAKIMGVAGGLTNLSKMPACNIMLLGAQRKTLSGFSSTSVLPHTGYIYHSDIVQSLPPDLRRKAARLVAAKCTLAARVDSFHESTEGKVGYELKDEIERKFDKWQEPPPVKQVKPLPAPLDGQRKKRGGRRYRKMKERLGLTEIRKQANRMSFGEIEEDAYQEDLGFSLGHLGKSGSGRVRQTQVNEATKARISKTLQRTLQKQSVVYGGKSTIRDRSSGTASSVAFTPLQGLEIVNPQAAEKKVAEANQKYFSSMAEFLKVKGEKSGLMST
partner: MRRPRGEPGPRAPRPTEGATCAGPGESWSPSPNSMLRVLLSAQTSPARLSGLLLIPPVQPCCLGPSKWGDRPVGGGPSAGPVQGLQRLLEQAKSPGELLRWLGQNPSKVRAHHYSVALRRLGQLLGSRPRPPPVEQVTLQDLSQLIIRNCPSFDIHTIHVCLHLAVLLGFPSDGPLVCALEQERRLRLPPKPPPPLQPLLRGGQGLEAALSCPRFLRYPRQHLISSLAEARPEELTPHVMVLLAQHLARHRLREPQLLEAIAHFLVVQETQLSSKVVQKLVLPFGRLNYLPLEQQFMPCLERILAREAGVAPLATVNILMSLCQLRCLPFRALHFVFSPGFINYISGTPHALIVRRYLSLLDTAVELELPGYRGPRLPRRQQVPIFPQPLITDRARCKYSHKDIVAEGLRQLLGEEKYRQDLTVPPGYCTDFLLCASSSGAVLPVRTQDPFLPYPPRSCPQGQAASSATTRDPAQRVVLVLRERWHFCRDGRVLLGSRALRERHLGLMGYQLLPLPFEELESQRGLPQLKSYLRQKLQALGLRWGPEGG
B3: DNA mismatch repair protein Mlh1 (Homo sapiens), P40692 (parent)
chain: MSFVAGVIRRLDETVVNRIAAGEVIQRPANAIKEMIENCLDAKSTSIQVIVKEGGLKLIQIQDNGTGIRKEDLDIVCERFTTSKLQSFEDLASISTYGFRGEALASISHVAHVTITTKTADGKCAYRASYSDGKLKAPPKPCAGNQGTQITVEDLFYNIATRRKALKNPSEEYGKILEVVGRYSVHNAGISFSVKKQGETVADVRTLPNASTVDNIRSIFGNAVSRELIEIGCEDKTLAFKMNGYISNANYSVKKCIFLLFINHRLVESTSLRKAIETVYAAYLPKNTHPFLYLSLEISPQNVDVNVHPTKHEVHFLHEESILERVQQHIESKLLGSNSSRMYFTQTLLPGLAGPSGEMVKSTTSLTSSSTSGSSDKVYAHQMVRTDSREQKLDAFLQPLSKPLSSQPQAIVTEDKTDISSGRARQQDEEMLELPAPAEVAAKNQSLEGDTTKGTSEMSEKRGPTSSNPRKRHREDSDVEMVEDDSRKEMTAACTPRRRIINLTSVLSLQEEINEQGHEVLREMLHNHSFVGCVNPQWALAQHQTKLYLLNTTKLSEELFYQILIYDFANFGVLRLSEPAPLFDLAMLALDSPESGWTEEDGPKEGLAEYIVEFLKKKAEMLADYFSLEIDEEGNLIGLPLLIDNYVPPLEGLPIFILRLATEVNWDEEKECFESLSKECAMFYSIRKQYISEESTLSGQQSEVPGSIPNSWKWTVEHIVYKALRSHILPPKHFTEDGNILQLANLPDLYKVFERC
partner: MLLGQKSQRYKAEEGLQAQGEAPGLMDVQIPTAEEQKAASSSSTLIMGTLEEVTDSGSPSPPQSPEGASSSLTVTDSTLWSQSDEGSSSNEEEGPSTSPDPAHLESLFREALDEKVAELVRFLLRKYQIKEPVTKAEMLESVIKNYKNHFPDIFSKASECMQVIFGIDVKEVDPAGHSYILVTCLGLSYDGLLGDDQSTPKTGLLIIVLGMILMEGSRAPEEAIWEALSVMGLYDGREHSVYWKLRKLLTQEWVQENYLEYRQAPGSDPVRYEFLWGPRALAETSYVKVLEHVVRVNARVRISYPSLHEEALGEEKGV
B4: Polyunsaturated fatty acid 5-lipoxygenase (Homo sapiens), P09917 (parent)
chain: MPSYTVTVATGSQWFAGTDDYIYLSLVGSAGCSEKHLLDKPFYNDFERGAVDSYDVTVDEELGEIQLVRIEKRKYWLNDDWYLKYITLKTPHGDYIEFPCYRWITGDVEVVLRDGRAKLARDDQIHILKQHRRKELETRQKQYRWMEWNPGFPLSIDAKCHKDLPRDIQFDSEKGVDFVLNYSKAMENLFINRFMHMFQSSWNDFADFEKIFVKISNTISERVMNHWQEDLMFGYQFLNGCNPVLIRRCTELPEKLPVTTEMVECSLERQLSLEQEVQQGNIFIVDFELLDGIDANKTDPCTLQFLAAPICLLYKNLANKIVPIAIQLNQIPGDENPIFLPSDAKYDWLLAKIWVRSSDFHVHQTITHLLRTHLVSEVFGIAMYRQLPAVHPIFKLLVAHVRFTIAINTKAREQLICECGLFDKANATGGGGHVQMVQRAMKDLTYASLCFPEAIKARGMESKEDIPYYFYRDDGLLVWEAIRTFTAEVVDIYYEGDQVVEEDPELQDFVNDVYVYGMRGRKSSGFPKSVKSREQLSEYLTVVIFTASAQHAAVNFGQYDWCSWIPNAPPTMRAPPPTAKGVVTIEQIVDTLPDRGRSCWHLGAVWALSQFQENELFLGMYPEEHFIEKPVKEAMARFRKNLEAIVSVIAERNKKKQLPYYYLSPDRIPNSVAI
partner: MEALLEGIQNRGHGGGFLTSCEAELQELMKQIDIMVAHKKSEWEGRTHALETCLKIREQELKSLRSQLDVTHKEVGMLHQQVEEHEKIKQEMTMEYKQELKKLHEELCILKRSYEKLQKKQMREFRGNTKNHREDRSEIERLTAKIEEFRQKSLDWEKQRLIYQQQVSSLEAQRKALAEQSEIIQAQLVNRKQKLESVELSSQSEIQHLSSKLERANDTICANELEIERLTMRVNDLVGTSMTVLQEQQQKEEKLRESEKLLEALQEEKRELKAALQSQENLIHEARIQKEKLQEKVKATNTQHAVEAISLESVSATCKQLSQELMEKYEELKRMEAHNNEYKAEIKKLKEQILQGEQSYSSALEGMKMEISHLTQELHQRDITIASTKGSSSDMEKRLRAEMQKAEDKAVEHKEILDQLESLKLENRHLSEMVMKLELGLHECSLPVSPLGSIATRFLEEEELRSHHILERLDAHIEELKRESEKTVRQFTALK
B5: SH2 domain-containing protein 1A (Homo sapiens), O60880 (parent)
chain: MDAVAVYHGKISRETGEKLLLATGLDGSYLLRDSESVPGVYCLCVLYHGYIYTYRVSQTETGSWSAETAPGVHKRYFRKIKNLISAFQKPDQGIVIPLQYPVEKKSSARSTQGTTGIREDPDVCLKAP
partner: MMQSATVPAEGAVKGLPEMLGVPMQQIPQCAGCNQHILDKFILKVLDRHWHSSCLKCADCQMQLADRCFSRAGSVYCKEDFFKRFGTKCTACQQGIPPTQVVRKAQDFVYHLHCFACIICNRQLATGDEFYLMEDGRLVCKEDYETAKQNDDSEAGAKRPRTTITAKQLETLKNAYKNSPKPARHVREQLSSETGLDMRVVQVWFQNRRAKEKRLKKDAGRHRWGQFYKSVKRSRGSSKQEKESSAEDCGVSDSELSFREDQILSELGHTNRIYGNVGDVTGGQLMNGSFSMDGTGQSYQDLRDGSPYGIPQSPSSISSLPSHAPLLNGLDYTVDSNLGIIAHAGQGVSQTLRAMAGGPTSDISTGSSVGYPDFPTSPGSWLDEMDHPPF
B6: Polyunsaturated fatty acid 5-lipoxygenase (Homo sapiens), P09917 (parent)
chain: B4 chain

Variants of: B1
Settings: with anr40_human ANKRD40, Q6AI12

| effect of a mutation on the interaction | Variant |
| --- | --- |
| disrupting interaction strength | A89V |

Variants of: B2
Settings: with fastk_human FASTK

| effect of a mutation on the interaction | Variant |
| --- | --- |
| with no effect | MSLADELLADLEEAAEEEEGGSYGEEEEEPAIEDVQEETQLDLSGDSVKTIAKLWDSKMFAEIMMKIEEYISKQAKASEVMGPVEAAPEYRVIVDANNLTVEIENEVNIIHKFIRDKYSKRFPELESLVPNALDYIRTVKELGNSLDKCKNNENLQQILTNATIMVVSVTASTTQGQQLSEEELERLEEACDMALELNASKHRIYEYVESRMSFIAPNLSIIIGASTAAKIMGVAGGLTNLSKMPACNIMLLGAQRKTLSGFSSTSVLPHTGYIYHSDIVQSLPPDLRRKAARLVAAKCTLAARVDSFHESTEGKVGYELKDEIERKFDKWQEPPPVKQVKPLPAPLDGQRKKRGGRRYRKMKERLGLTEIRKQANRMSFGEIEEDAYQEDLGFSLGHLGKSGSGRVRQTQVNEATKARISKTLQRTLQKQSVVYGGKSTIRDRSSGTASSVAFTPLQGLEIVNPQAAEKKVAEANQKYFSSMAEFLKVKGEKSGLMST [L107V] |

Variants of: B3
Settings: with maga8_human MAGEA8, P43361

| effect of a mutation on the interaction | Variant |
| --- | --- |
| disrupting interaction strength | S44F |
| with no effect | R472I |
| with no effect | G244D |

Variants of: B4
Settings: with CEP63, Q96MT8-3

| effect of a mutation on the interaction | Variant |
| --- | --- |
| with no effect | E254K |

Variants of: B5
Settings: with lhx4_human LHX4, Q969G2

| effect of a mutation on the interaction | Variant |
| --- | --- |
| with no effect | MDAVAVYHGKISRETGEKLLLATGLDGSYLLRDSESVPGVYCLCVLYHGYIYTYRVSQTETGSWSAETAPGVHKRYFRKIKNLISAFQKPDQGIVIPLQYLVEKKSSARSTQGTTGIREDPDVCLKAP |
| with no effect | MDAVAVYHGKISRETGEKLLLATGLDGSYLLRDSESVPGVYCLCVLYHGYIYTYRVSQTETGSWSAETAPGVHKRYFRKIKNLISAFQKPDQDIVIPLQYPVEKKSSARSTQGTTGIREDPDVCLKAP |
| with no effect | MDAVAVYHGKISRETGEKLLLATGLDGSYLLTDSESVPGVYCLCVLYHGYIYTYRVSQTETGSWSAETAPGVHKRYFRKIKNLISAFQKPDQGIVIPLQYPVEKKSSARSTQGTTGIREDPDVCLKAP |

Variants of: B6
Settings: with md1l1_human MAD1L1, Q9Y6D9
Chain of md1l1_human MAD1L1, Q9Y6D9 (Q9Y6D9 whole entry): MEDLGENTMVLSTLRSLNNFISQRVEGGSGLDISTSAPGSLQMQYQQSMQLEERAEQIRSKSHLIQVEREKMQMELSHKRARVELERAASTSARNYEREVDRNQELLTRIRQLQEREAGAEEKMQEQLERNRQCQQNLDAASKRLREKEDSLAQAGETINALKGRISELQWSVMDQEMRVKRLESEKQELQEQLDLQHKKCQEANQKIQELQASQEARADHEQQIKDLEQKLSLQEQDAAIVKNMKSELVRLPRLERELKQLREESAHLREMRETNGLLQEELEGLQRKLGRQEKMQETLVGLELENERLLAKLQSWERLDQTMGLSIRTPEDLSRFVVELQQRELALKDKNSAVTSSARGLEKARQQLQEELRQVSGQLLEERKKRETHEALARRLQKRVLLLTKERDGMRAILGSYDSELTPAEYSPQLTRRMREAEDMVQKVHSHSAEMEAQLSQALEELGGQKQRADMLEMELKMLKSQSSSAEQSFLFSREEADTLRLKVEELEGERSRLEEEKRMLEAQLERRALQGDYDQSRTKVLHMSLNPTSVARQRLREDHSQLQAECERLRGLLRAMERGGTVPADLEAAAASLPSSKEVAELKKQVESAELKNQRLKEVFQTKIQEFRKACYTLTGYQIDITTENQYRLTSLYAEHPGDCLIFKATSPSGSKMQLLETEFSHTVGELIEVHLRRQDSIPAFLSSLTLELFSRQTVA

| effect of a mutation on the interaction | Variant |
| --- | --- |
| with no effect | E254K |

Variants of: B6
Settings: with hipl2_human HHIPL2, Q6UWX4
Chain of hipl2_human HHIPL2, Q6UWX4 (Q6UWX4 whole entry): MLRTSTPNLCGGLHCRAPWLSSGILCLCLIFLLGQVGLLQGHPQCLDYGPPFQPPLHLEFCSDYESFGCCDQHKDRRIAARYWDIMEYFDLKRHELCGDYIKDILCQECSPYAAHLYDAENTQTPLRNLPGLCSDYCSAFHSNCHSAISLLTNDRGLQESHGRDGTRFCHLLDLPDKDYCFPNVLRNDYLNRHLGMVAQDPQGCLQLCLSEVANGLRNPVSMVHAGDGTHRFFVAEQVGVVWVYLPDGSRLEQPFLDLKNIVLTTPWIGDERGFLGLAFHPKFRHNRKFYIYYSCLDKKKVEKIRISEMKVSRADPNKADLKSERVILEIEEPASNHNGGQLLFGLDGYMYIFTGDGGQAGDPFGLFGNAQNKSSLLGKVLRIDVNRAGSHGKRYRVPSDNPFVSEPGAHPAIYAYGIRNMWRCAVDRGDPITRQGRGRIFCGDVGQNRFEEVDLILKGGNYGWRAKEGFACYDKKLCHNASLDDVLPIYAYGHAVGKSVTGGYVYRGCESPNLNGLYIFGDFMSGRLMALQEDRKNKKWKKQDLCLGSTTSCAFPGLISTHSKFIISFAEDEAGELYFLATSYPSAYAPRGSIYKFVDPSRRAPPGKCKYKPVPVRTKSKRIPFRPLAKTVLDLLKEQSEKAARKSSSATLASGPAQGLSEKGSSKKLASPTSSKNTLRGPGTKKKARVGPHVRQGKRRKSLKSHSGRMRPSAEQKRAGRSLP

| effect of a mutation on the interaction | Variant |
| --- | --- |
| with no effect | E254K |

Variants of: B6
Settings: with syce1_human SYCE1, Q8N0S2
Chain of syce1_human SYCE1, Q8N0S2 (Q8N0S2 whole entry): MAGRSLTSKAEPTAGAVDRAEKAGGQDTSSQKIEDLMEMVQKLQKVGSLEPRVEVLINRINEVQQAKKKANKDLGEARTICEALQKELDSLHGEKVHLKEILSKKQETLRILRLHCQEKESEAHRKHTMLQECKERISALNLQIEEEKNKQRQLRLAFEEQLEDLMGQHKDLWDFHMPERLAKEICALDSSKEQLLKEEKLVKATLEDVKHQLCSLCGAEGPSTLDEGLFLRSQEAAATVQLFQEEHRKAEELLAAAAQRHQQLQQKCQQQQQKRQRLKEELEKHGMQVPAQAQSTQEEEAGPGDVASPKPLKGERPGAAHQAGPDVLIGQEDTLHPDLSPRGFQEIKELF

| effect of a mutation on the interaction | Variant |
| --- | --- |
| with no effect | E254K |
